# Positions count from the first letter of the chain named. Names may count otherwise.
# B1: wild-type TEAS: tobacco 5-epi-aristolochene synthase (TEAS) protein, SEQ ID NO:2, Nicotiana tabacum (protein)
# chain: MASAAVANYEEEIVRPVADFSPSLWGDQFLSFSIKNQVAEKYAQEIEALKEQTRNMLLATGMKLADTLNLIDTIERLGISYHFEKEIDDILDQIYNQNSNCNDLCTSALQFRLLRQHGFNISPEIFSKFQDENGKFKESLASDVLGLLNLYEASHVRTHADDILEDALAFSTIHLESAAPHLKSPLREQVTHALEQCLHKGVPRVETRFFISSIYDKEQSKNNVLLRFAKLDFNLLQMLHKQELAQVSRWWKDLDFVTTLPYARDRVVECYFWALGVYFEPQYSQARVMLVKTISMISIVDDTFDAYGTVKELEAYTDAIQRWDINEIDRLPDYMKISYKAILDLYKDYEKELSSAGRSHIVCHAIERMKEVVRNYNVESTWFIEGYTPPVSEYLSNALATTTYYYLATTSYLGMKSATEQDFEWLSKNPKILEASVIICRVIDDTATYEVEKSRGQIATGIECCMRDYGISTKEAMAKFQNMAETAWKDINEGLLRPTPVSTEFLTPILNLARIVEVTYIHNLDGYTHPEKVLKPHIINLLVDSIKI
# B2: TEAS Y527F: TEAS protein in which Tyr527 is changed to Phe, SEQ ID NO:8 (protein)
# chain: B1 chain with K35D, N55S, M62R, T73I, D89E, T388M, Y527F
# B3: TEAS W273E: TEAS protein in which Trp273 is changed to Glu, SEQ ID NO:4 (protein)
# chain: B1 chain with K35D, N55S, M62R, T73I, D89E, W273E, T388M
# Key:
# Assay type in all cases: biochemical
# [1] = Diterpene synthase activity assay with radiolabelled GGPP (solvent extraction, scintillation counting, Ag-TLC)
# Experimental: (§1) Synthase activity assays were carried out based on the assay described in Vogeli and Chappell, Plant Physiol. 94:1860 (1990) and Vogeli, et al., Plant Physiol. 93:182 (1990). In general, radio-labeled (^3H or ^14C) substrate was incubated with enzyme at room temperature in a buffered magnesium salt solution (200 mM Tris, pH 8, 50 mM Mg chloride, 1 mM DTT, unless otherwise noted); hydrocarbon products were then selectively extracted into an organic solvent such as hexane. The hexane extract generally was treated with silica gel to remove prenyl alcohols and other oxygenated compounds generated by non-enzymatic hydrolysis of substrate, which partition inefficiently into hexane. Hydrocarbon products present in the hexane phase were quantitated by scintillation counting.
# A subsequent extraction with a more polar organic solvent such as ethyl acetate was sometimes carried out. Oxygenated compounds more efficiently partition into ethyl acetate-type solvents. Compounds present in the ethyl acetate phase were also quantitated by scintillation counting.
# (§2) Substrate concentrations typically ranged from 0.1 nanomolar to 100 micromolar. In some assays, the substrate was not radiolabeled. Reactions generally were carried out in triplicate for each substrate concentration. Protein concentration was determined by the Bradford method. For determination of steady-state kinetic parameters, enzyme concentrations were chosen such that generation of products over time was linear throughout the course of the reaction.
# (§3) Diterpene synthase assays typically were carried out using ^3H geranylgeranyl diphosphate (GGPP) and enzyme in 250 mM Tris, 10 mM Mg chloride, 1 mM DTT, pH 8.0. Sesquiterpene synthase assays typically were carried out using ^14C or ^3H FPP and enzyme in 100 mM Tris, 30 mM Mg chloride, 1 mM DTT, pH 8.0. Monoterpene synthase assays typically were carried out using ^3H GPP and enzyme. As a control for nonspecific binding of GPP by protein, identical reactions were set up which contained BSA, rather than enzyme.
# (§4) Terpenoid hydrocarbon products are not readily separated by thin layer chromatography on normal or reverse-phase plates; however, some can be separated by argentation TLC (Ag-TLC), in which silica plates are first treated with silver nitrate. Ag-TLC described here generally followed the procedure described by Back et al., Arch. Biochem. Biophys. 315:527 (1994). A silica TLC plate was dipped in 15% silver nitrate (aqueous), then dried for 3-5 hours at 110° C. After spotting of tritiated enzymatic products (solvent extract), the plate was developed in benzene:hexane, ethyl acetate (50:50:1, by volume), sprayed with En^3Hance (NEN) fluorography spray, placed on film, and exposed for several days to several weeks. Long exposure times were generally necessary, as silver-nitrate treatment of the TLC plate appeared to cause quenching of the fluorography reagents fluorescence. Alternatively, ^14C labelled products were detected after one to two days without the use of fluorography spray.
# The TEAS W273S enzyme and radiolabelled GGPP were incubated as described above and hydrocarbon products were extracted with hexane. Oxygenated products were then extracted with ethyl acetate.
# The mutant TEAS C440W1W273S protein contains a tryptophan residue at position 440 and a serine residue at position 273. Assays with GGPP were carried out using 0.5 micromolar ^3H GGPP, various concentrations of unlabelled GGPP (Echelon), and enzyme. Reactions were incubated for 60 minutes at room temperature. […] Hexane-extractable products of GGPP turnover by the double mutant were analyzed by Ag-TLC. The products included two species (Rf=0.11 and 0.28) that were distinct from the hydrolysis product geranyl geraniol (Rf=0.0).To verify that products generated by TEAS C440W/W273S from GGPP were not the hydrolysis product, geranylgeraniol, a sample was analyzed by Ag-TLC. […]
# [2] = Alkylation of enzyme by radiolabeled FPP; settings: dependent upon the presence of MgCl2
# Experimental: Reactions to determine the products made by TEAS W273E using FPP as substrate were carried out essentially as described above, using radioiabeled FPP. […] The alkylation was dependent upon the presence of MgCl2 in the reaction mixture. In control experiments, boiled W273E-TEAS, as well as wild-type TEAS and BSA, were not alkylated.
# [3] = Sesquiterpene synthase activity assay with radiolabelled FPP (Ag-TLC and GC/MS product analysis); settings: radiolabelled FPP; FIG. 4
# Experimental: as §1, §2, §3, §4
# Products of FPP turnover by the purified TEAS W273S mutant were analyzed by argentation thin-layer chromatography (Ag-TLC).
# Reactions with FPP as substrate were carded out with ^14C FPP (9 μm) and enzyme (160 μm) in reaction buffer (20 μl). After incubating for 30 minutes at room temperature, products made by TEAS C440W/W273S were analyzed by Ag-TLC. […] The new product was distinct from both 5-epi-aristolochene and vetispiradiene. Several other products were also formed, many of which migrated slowly upon argentation TLC.
# Reactions with radiolabeled FPP and TEAS Y520F enzyme were carried out essentially as described above. Reaction products were analysed by Ag-TLC and by GC/MS.
# [4] = Monoterpene synthase activity assay with GPP; settings: crude extract of enzyme from E. coli
# Experimental: as §1, §3
# A crude extract of TEAS Y527F enzyme was made by inducing expression in E. coli cells, and sonicating the cells. […]
Molecule,"conversion of GGPP to hexane-extractable products ([1]; 0.5 micromolar 3H GGPP plus unlabelled GGPP, 60 minutes at room temperature)","counts in hexane and ethyl acetate extracts after incubation with radiolabelled GGPP ([1]; hydrocarbon products extracted with hexane, oxygenated products with ethyl acetate, compared with buffer alone)",alkylation of the enzyme by FPP [2],"products of FPP turnover, analyzed by Ag-TLC [3]",products formed with GPP as a substrate (monoterpene synthase activity) [4]
B1,did not,counts lower than buffer alone,not alkylated,–,–
B2,–,–,–,products other than 5-epi-aristolochene were generated,No products were observed
B3,–,–,alkylation of TEAS by FPP had occurred,at least one product other than 5-epi-aristolochene was formed,–

# — patent US6645762B2, “Synthases” (The Salk Institute for Biological Studies, priority 1998, dated 2003)
